From patent publication US20260055186A1 (REPERTOIRE IMMUNE MEDICINES, published 2026)
Blank lines part the entries; values can stand above or below the binder they belong to.

What was measured:
[1] = molecular target: T1, cynomolgus monkey CD8 on cynomolgus cells (cynomolgus monkey); assay: flow cytometry, NK cells in cynomolgus PBMCs (CD8-expressing by paragraph 442), 30 min 37 °C, anti-IL-12p40
T1 construct: whole, on cells; also called cynomolgus CD8
Description: (§1) Fusion proteins H6K3-IgG-IL12 (LC) and H6K3-IgG-IL12 (1×HC) were also evaluated for their ability to bind CD8-expressing cells in human and cynomolgus monkey PBMCs. Briefly, 5×10⁴ human PBMCs (StemCell Technologies) or cynomolgus monkey PBMCs (iQ Biosciences) were incubated with 7 serial 5-fold dilutions of one of the two aforementioned H6K3-IgG-IL12 constructs for 30 minutes at 37° C. Cells were washed twice with MACS buffer and stained with viability dye and fluorophore-conjugated antibodies against IL-12 and cell-surface markers for 20 minutes at 4° C. Cells were analyzed on a FACSCelesta using Diva software (BD Biosciences). Binding activity for all treatments was quantified and represented as the mean fluorescence intensity values of IL-12 on human CD8+ T cells and NK cells (FIGS. 17A-17B) and on cynomolgus monkey CD8+ T cells and NK cells (FIGS. 17C-17D). For the H6K3-IgG-IL12 (LC) treatments, results are also reported as the frequency of IL-12+CD8+ T cells and NK cells (FIG. 17E). As shown in FIGS. 17A-17D, both H6K3-IgG-IL12 (LC) and H6K3-IgG-IL12 (1×HC) were able to selectively bind human CD8+ T cells over NK cells at a range of concentrations. […] Where the cells were incubated with 0.128 nM of the IL-12 fusion constructs, the number of live CD45+ cells staining as CD8+ and IL-12 were assessed by flow cytometry. […]

[2] = molecular target: T1, cynomolgus monkey CD8 on cynomolgus …; assay: cell-based or functional assay
[3] = molecular target: T1, cynomolgus monkey CD8 on cynomolgus …; assay: flow cytometry, CD8+ T cells in cynomolgus PBMCs, 30 min 37 °C, anti-IL-12p40
Description: as §1

[4] = molecular target: T2, human CD8 on human T cells (human, UniProt P01732 22-235); assay: cell-based or functional assay
[5] = molecular target: T2, human CD8 on human T cells; assay: flow cytometry, CD8+ T cells in human PBMCs, 30 min 37 °C, anti-human IL-12 AF647
Description: Fusion proteins H6K3-IgG-IL12 (LC) and H6K3-IgG-IL12 (1×HC) were evaluated for their ability to selectively bind human CD8+ T cells in PBMCs. Briefly, 5×10⁴ human PBMCs (StemCell Technologies) were incubated with 7 serial 5-fold dilutions of one of the two aforementioned H6K3-IgG-IL12 constructs for 30 minutes at 37° C. Cells were washed twice with MACS buffer and stained for 20 minutes at 4° C. with fluorophore-conjugated anti-CD3, anti-CD4, anti-CD8, anti-CD56, and anti-IL12 antibodies, and viability dye. Cells were analyzed on a FACSCelesta using Diva software (BD Biosciences). Binding activity was quantified and represented as the mean fluorescent intensity values of IL-12 on either CD8+ T cells or NK Cells. As shown in FIGS. 16A-16B, both H6K3-IgG-IL12 (LC) and H6K3-IgG-IL12 (1×HC) were able to selectively bind human CD8+ T cells over NK cells at a range of concentrations.

[6] = molecular target: T2, human CD8 on human T cells; assay: flow cytometry, CD8+ T cells in human PBMCs, 30 min 37 °C, anti-IL-12p40
Description: as §1

mouse CD8 on mouse cells = molecular target: T3, mouse CD8 on mouse cells (mouse, UniProt P01731 28-247); assay: flow cytometry of peripheral blood, B16-F10-bearing mice, 4 days after the first dose (in vivo)
T3 construct: whole, on cells; also called mCD8
Description: Mice were injected weekly for a total of 4 doses, at a dose equivalent to 10 μg of recombinant IL12. Tumor volume was measured twice per week, and mice were euthanized if tumor volume exceeded 2000 mm³. […] Specifically, in the MC38 model, treatment with the CD8IgG-IL12 (LC) Clone 2 construct controlled tumor growth up to day 21 and yielded 3/8 complete responders, whereas treatment with the CD8IgG-IL12 (1× HC) construct controlled tumor growth for the entire duration of the study and yielded 7/8 complete responders (FIGS. 6A-6C). In the B16-F10 model, which is typically less responsive to immunotherapy, both constructs limited tumor growth for up to 14 days after the initial dose (FIGS. 7A-7C).
In the same study, the two anti-CD8:IL-12 fusion constructs were also evaluated for their ability to be retained in tissues. Peripheral blood cells were collected from MC38 and B16-F10 tumor-bearing mice 4 days after administration of the first dose of the IL-12 construct. Samples were analyzed by flow cytometry. In the case of the MC38 tumor-bearing mice, IL-12 was detected on the surface of CD8+ T cells 4 days post-treatment with either of the two anti-CD8:IL-12 fusion protein constructs, but not on the surface of CD4+ T cells or NK cells (FIG. 8A). […]

T2 sequence (P01732 22-235): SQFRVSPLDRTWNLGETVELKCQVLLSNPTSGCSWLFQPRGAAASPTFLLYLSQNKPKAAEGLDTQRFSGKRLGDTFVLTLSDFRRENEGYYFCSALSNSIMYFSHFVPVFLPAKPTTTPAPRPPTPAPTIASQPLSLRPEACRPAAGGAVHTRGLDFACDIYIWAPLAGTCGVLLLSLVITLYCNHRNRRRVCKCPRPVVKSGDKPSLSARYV
T3 sequence (P01731 28-247): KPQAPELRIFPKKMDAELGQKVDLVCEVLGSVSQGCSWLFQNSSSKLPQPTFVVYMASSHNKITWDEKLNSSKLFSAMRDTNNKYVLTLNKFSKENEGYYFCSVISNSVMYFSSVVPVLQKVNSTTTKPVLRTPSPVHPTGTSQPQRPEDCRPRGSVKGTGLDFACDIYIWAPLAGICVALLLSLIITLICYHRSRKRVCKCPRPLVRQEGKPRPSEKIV

EC50 (read off the curve) [1]: ~0.1 nM
EC50 of pSTAT4 signaling in cynomolgus CD8+ T cells [2]: 2.3 pM
EC50 of pSTAT4 signaling in cynomolgus NK cells [2]: 2 pM
EC50 (read off the curve) [3]: ~0.05 nM
EC50 of pSTAT4 signaling in human CD8+ T cells [4]: 2.3 pM
EC50 (read off the curve) [5]: ~0.06 nM
EC50 (read off the curve) [6]: ~0.05 nM
B1: H6K3-IgG-IL12 (1×HC) (other)
VH: EVQLVQSGAEVKKPGATVKISCKASGYTFTDFTMHWVQQAPGKGLEWIGLVNPNNGGNIYAEKFQGRVTLTVDTSTSTAYMELSSLRSEDTAVYYCGRVPLYTSHGMDYWGQGTLVTVSS
VL: EIVLTQSPATLSLSPGERATISCRASESVDSYDINSMHWYQQKPGQAPRLLIYRASHLQSGIPARFSGSGSRTDFTLTISSLEPEDFATYYCQQSNEDPLTFGQGTKLEIK
notes: Humanized 02A01 VH6/VK3 IgG1 with one human IL-12p70 on the C-terminus of the knob heavy chain; Fc with L234A, L235A, P329G, N297A and T366W / T366S, L368A, Y407V; not tied to this name; also called hCD8IgG-1×IL12 (HC); hCD8IgG-IL12 (1 × HC)

EC50 of pSTAT4 signaling in cynomolgus CD8+ T cells [2]: 1.8 pM
EC50 of pSTAT4 signaling in cynomolgus NK cells [2]: 2.4 pM
EC50 (read off the curve) [3]: ~0.05 nM
EC50 of pSTAT4 signaling in human CD8+ T cells [4]: 3.3 pM
EC50 (read off the curve) [5]: ~0.04 nM
EC50 (read off the curve) [6]: ~0.03 nM
B2: H6K3-IgG-IL12 (LC) (other)
VH: B1 VH
VL: B1 VL
notes: Humanized 02A01 VH6/VK3 IgG1 with human IL-12p70 on each light chain C-terminus; Fc with L234A, L235A, P329G, N297A; not tied to this name; also called hCD8IgG-IL12 (LC)

B3: rIL-12 (ligand)
alpha: RVIPVSGPARCLSQSRNLLKTTDDMVKTAREKLKHYSCTAEDIDHEDITRDQTSTLKTCLPLELHKNESCLATRETSSTTRGSCLPPQKTSLMMTLCLGSIYEDLKMYQTEFQAINAALQNHNHQQIILDKGMLVAIDELMQSLNHNGETLRQKPPVGEADPYRVKMKLCILLHAFSTRVVTINRVMGYLSSA
beta: MWELEKDVYVVEVDWTPDAPGETVNLTCDTPEEDDITWTSDQRHGVIGSGKTLTITVKEFLDAGQYTCHKGGETLSHSHLLLHKKENGIWSTEILKNFKNKTFLKCEAPNYSGRFTCSWLVQRNMDLKFNIKSSSSSPDSRAVTCGMASLSAEKVTLDQRDYEKYSVSCQEDVTCPTAEETLPIELALEARQQNKYENYSTSFFIRDIIKPDPPKNLQMKPLKNSQVEVSWEYPDSWSTPHSYFSLKFFVRIQRKKEKMKETEEGCNQKGAFLVEKTSTEVQCKGGNVCVQAQDRYYNSSCSKWACVPCRVRS
notes: untargeted control; also called rmIL-12; non-targeted recombinant mouse IL-12; copies: 1 + 1
binding result (mouse CD8 on mouse cells): no binding (tested: dose equivalent to 10 µg IL-12, i.v.)
